The values that follow come from article PMC9015690 (Science signaling, 2021).

This assay deals with Wild type CXCL12 (CXCL12-WT) (UniProt P48061-2 22-89). In words: ITC. (In general: ITC needs no label: the signal is the heat of the interaction.)
Sequence of Wild type CXCL12 (CXCL12-WT) (P48061 22-89): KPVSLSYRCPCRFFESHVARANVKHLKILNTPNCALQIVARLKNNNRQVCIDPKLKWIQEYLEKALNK

B1: ACKR1^N-term, sixty-amino acid peptide corresponding to the extracellular N-terminus of ACKR1 (domain or fragment, UniProt Q16570 1-60, looked up)
chain: MGNALHRAELSPSTENSSQLDFEDVWNSSYGVNDSFPDGDYGANLEAAAPAHSANLLDDS
As usually defined, the Kd is a measure of binding affinity in units of concentration. Low values mean higher affinity, high ones lower affinity. By stoichiometry N is commonly meant a count of units in the complex or per binding partner. On to B1, for which the dissociation constant Kd worked out at 4 µM and the “stoichiometry N” value is roughly 0.5.
